Laboratory results reported in PMC4928148 (Biochemistry, 2016).

Target: the molecule itself
Assay: crystal structure

B1: secreted (extracellular) catalase-peroxidase from Magnaporthe grisea, wild type (enzyme)
chain: QGCPFAKRDGTVDSSLPQKRADAPETTTFGRCAVKSNQAGGGTRSHDWWPCQLRLDVLRQFQPSQNPLGGDFDYAEAFQSLDYEAVKKDIAALMTESQDWWPADFGNYGGLFVRMAWHSAGTYRAMDGRGGGGMGQQRFAPLNSWPDNQNLDKARRLIWPIKQKYGNKISWADLMLLTGNVALENMGFKTLGFGGGRADTWQSDEAVYWGAETTFVPQGNDVRYNNSVDINARADKLEKPLAATHMGLIYVNPEGPNGTPDPAASAKDIREAFGRMGMNDTETVALIAGGHAFGKTHGAVKGSNIGPAPEAADLGMQGLGWHNSVGDGNGPNQMTSGLEVIWTKTPTKWSNGYLESLINNNWTLVESPAGAHQWEAVNGTVDYPDPFDKTKFRKATMLTSDLALINDPEYLKISQRWLEHPEELADAFAKAWFKLLHRDLGPTTRYLGPEVPKESFIWQDPLPAREGDLIDDADVDKLKAAILSTDGLDVSKLASTAMACATTYRNSDKRGGCNGARIALEPQRNWVSNNPTQLSAVLDALKKVQSDFNGSNGNKKVSLADLIVLGGTAAVEKAAKDAGVDIKVPFSAGRVDATQEQTDVTQFSYLEPQADGFRNYGRGTARARTEEIMVDKASQLTLTPPELTVLVGGMRALGANYDGSDVGVFTANKGKLTPDFFVNLVDMNIAWTASGADGESWVGTDRKSRSEKYKGSRADLVFGSHAELRAIAEVYAENGNQEKFVKDFVAAWTKVMNLDRFDLKVKK
- stoichiometry N: 2
